The nanobody polyreactivity screen of Harvey et al. (2022)

Experiment: yeast display, Sf9 membrane polyspecificity reagent, FACS + sequencing; frameworks hold sequencing errors
How it was run: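 Using colony PCR, genes from sorted yeast display clones were amplified, then sequenced on MiSeq at 2 × 250 and filtered by CDR length. The clones had been stained with 10% biotinylated, detergent-solubilized Sf9 membrane reagent for 1 hour at 4 °C and sorted by FACS into low and high (top ~1%) gates on anti-HA and streptavidin fluorescence. Polyreactivity labels come from the gate of origin.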

Sequence | polyreactivity (PSR sort gate)
QVQLVESGGGLVQAGGSLRLSCAASGFIFSGNAMGWYRQAPGKERELVAAISWSGTSTFYADSVKGRFTISRDNAKNTVYLQMNSLKPEDTAVYYCAAETYYSYWYRPHYDYWGQGTQVTVSS | low polyreactivity
QVQLVESGGGLVQAGGSLRLSCAASGRIFGRYAMGWYRQAPGKERELVAAISSRGSRTYYADSVKGRFTISRDNAKNTVYLQMNSLKPEDTAVYYCAATWLSNPSDYDYWGPGTQVTVSS | high polyreactivity
QVQLVESGGGLVQAGGSLRLSCAASGSTFPTYAMGWYRQAPGKERELVAAITSGSGTNTYYADSVKGRFTISRDNAKNTVYLQMNSLKPEDTAVYYCAKSFRKKYGWGQGTQVTVSS | high polyreactivity
QVQLVESGGGLVQAGGSLRLSCAASGLIFNWNDMGWYRQAPGKERELVAAISGDGGITYYADSVKGRFTISRDNAKNTVFLQMNSLKPEDTAVYYCNAGFTWGDWYDYWGQGTQVTVSS | low polyreactivity
QVQLVESGGGLVQAGGSLRLSCSASGSTFRVYAMGWYRQAPGKERELVAAISWSGGRTYYADSVKGRFTISRDNAKNTVYLQMNSLKPEDTAVYYCAADTYGRYDYWGQGTQVTVSS | high polyreactivity
QVQLVESGGGLVQAGGSLRLRCAASGSTYVYAIGWYRQAPGKDRELVASISWSDSSTYYADSVKGRFTISRDNAKNTVYLQMNSLKPEETAFYYCNADQGTRDSDYWGQGTQVTVSS | low polyreactivity
QVQLVESGGGLVQAGGSLRLSCAASGRTFKANAMGWYRQAPGKERELVAAISYSGGNTYYADSVKGRFTISRDNAKNTVYLQMNSLKPEDTAVYYCAARRGYGRENQFYSWGQGTQVTVSS | high polyreactivity
QVQLVESGGGLVQAGGSLRLICAASGNTFKDYTMVWYIQAPRKERDLVASINSGGSTNYADSVKGRFTISRDNAKNTVYLQMNSLKPEDTAVYYCAKRAWSDYNPIDYWGQGTQVSVSS | low polyreactivity
QVQLVESGGGLVQAGGSLRLSCAASGFTFGVYAMGWYRPAPGKERELVAAITSGGGRTYADSVKGRFTISRDNAKNTVYLQMNSLKTEDTADYYCAAEGVPLRVVLDYSYWDYDYDYWGQGTQVTVSS | low polyreactivity
QVQLVESGGGLVQAGGSLRLSCAASGSTFVVNAMGWYRQAPGKERELVAAIDGSDGSTYYADSVKGRFTISRDNAKNTVYLQMNSLKPEDTAVYYCAAEVLGRPDVENDYWGQGTQVTVSS | low polyreactivity
QVQLVESGGGLVQAGGSLRLSCAASGRTFEVYAMGWYRQAPGKERELVAAISGGDDSTYYADSVQGRFTISRDNAKNTVYLQRNSLKPEDTAVYYCNAHYPTSATLPKTVVEYDYWGQGTQVTVSS | low polyreactivity
QVQLVESGGGLVQAGGSLRLICAASGRIFSTYAMGWYRQAPGKERELVAAINKIGGSTYYADSVKGRFTISRDNAKNTVYLQMNSLKPEDTAVYYCAADAPYYPVRRYYYWGQGTQVTVSS | low polyreactivity
QVQLVESGGGLVQAGGSIRLSCAASGSTFVWNAMGWYRQAPGKERELVAAISSSGGSTYYADSVKGRFTISRDNAKNTVYLQMNSLKPEDTAVYYCAAYYGRRRFGYWGQGTQVTVSS | high polyreactivity
QVQLVESGGGLVQAGGSLRLSCAASGSIFDNYAMGWYRQAPGKERELVAAITSSGNTSYADSVKGRFTISRDNAKNTVYLQMNSLKPEDTAVYYCNADSQVKYTYNNHFDYWGQGTQVTVSS | low polyreactivity
QVQLVESGGGLVQAGGSLRLSCAASGSTFGHNAMGWYRQAPGKERELVAAIDSGDGTTYADSVKGRFTISRDNAKNTVYFQMNSLKPEDTAVYYCAATTDRAEDDDNIGGYWGQGTQVTVSS | low polyreactivity
QVQLVESGGGLVQAGGSLRLSCAASGLIFGWYAMGWYRQAPGKERELVAGISGSGGITYYADSVKGRFTISRDNAKNTVYLQMNSLKPEDTAVYYCNARYPRYYRGVIQYDFWGQGTQVTVSS | low polyreactivity
QVQLVDTGGGLVQAGGSLRLSCSASGSIFEGYAMGWYRKAPGKERELVARITSDDDSTYYADSVKGRFTISRDKEKNTVYLQMNSLKAEDTAVYYCNADYYWTSLAMDSWGQGTQVTVSS | low polyreactivity
QVQLVDSGGGLVQAGGSLPLICADAGSTFNSYAMGRYRQAPGKKRELVAAIRWIGDSTYADSVKGRFTISRDNATNTVYLQMNSLKPVDTAVYYCAATDVSWGVDYWGQCTQVTVSS | low polyreactivity
QVQLVDSRGGLVQAGGSLRLSCAASGSTFVNYAMGWYRQAPGKAWELVAAITANGGRTYYADSVKGRFTISRDNAKNTVYLQMNSLKPEDTAVYYCNTESNLYRRRRNYWGQGTQVTVSS | low polyreactivity
QVQHVESGGGLVQAGGSLRLSCAASGSIFVYYAMGGYRQAPGKERELVAAISRSGGNTYYADSVKGRFTISRDNAKNTVYLQMNSLKPEDTAVYYCAAQPYVEGTKRYYWGQGTQVTVSS | high polyreactivity
QVQHVESGGGLVQAGGRLRLSCAASGRIFGGYTMGWYRQAPGKERELVAAINSGGSTYYADSVKGRFTISRDNAKNTVYLQMNCLKPEDTAVYYCAKVRSYFGKYGYGYWGQGTQVTVSS | high polyreactivity
QVQLVESGGGLVQAGGSLRLICDASGSTFERYALGWYRQAPGKERELVAAITWGGGSTNYADSVKGRFTISRDNEKNTVYLQMNSLNPEDTAVYYCRPLYLGGDYWGQGTQVTVSS | low polyreactivity

Sequence | polyreactivity (PSR sort gate)
QVQLVESGGGLVQAGGSLRLSCAASGRIFYYYAMGWSRPAPGTERELVASITFSGGRTFYADSVKGRFTISRDNAKKTVYLQMNSLKPEDTAVYYCAAVRWGRRSGGLVAEYDYWGQGTQVNVSS | high polyreactivity
QVQLVESGGGLVPAGGSLRLSCAASGLTIYHYAMGWYRQAPGKERELVAAISYSGGSTYYADSVKGRFTISRDNAKNTVYLQMNSLKPEDTAVYYCAAYARHYGTSSLRYDYWGQGTQVTVSS | high polyreactivity
QVQLVESGGGLVQAGGSLRLSCAASGSIFGRYVMGWYRQAPGTDRELVAAISGSGTSTYYADSVKGRFTISRDNAKNTVYLQMNSLKPEDTAVYYCAARDIKSSHDYDYWGQGTQVTVSS | low polyreactivity
QVQLVESGGGLVQAGGSLRLSCAASGSTFGGKAMGWYRQAPGKDREMVAAITGSGGRTFYADSVKGRFTISRDNAKNTVYLQMNSLKQEDTAVYSCAAYSYIYSVNYWGQVTQVTVSS | low polyreactivity
QVQLVESAGGLVQAGGSLRLSCAASGRTFYPYAMGWYRQAPGKARELVAAIRSSGGTTYYADSVKGRFTISRDNAKNTVYVQMNSLKPEDTAVYYCAAFVDRQGGYYWGQGTQVTVSS | high polyreactivity
QVQLVESGGGLVQAGGSLRLSCAASGSTFYVYAMGWYRQAPGKERELVAAISSSGARTYYADSVKGRFTISRDNAKNTVYLQMNSLKPEDTAVYYCAARRYYKFYYWGQGTQVTVSS | high polyreactivity
QVQHVESGVGLVQAGGSLRLSCAASGRIFVFYTMGWYIQAPGKERELVARISSGGSKNYADSVKGRFTISRDNAKNTVYLQMNSLKPEDTAVYYCNAAYARGRAGYYYWGQGTQVTVSS | high polyreactivity
QVQLVESGGGLVQAGGSLRLSCAASGSTFAQNTMGWYRQAPGKERELVATISDGGGSTYYADSVKGRFTISRDIAKNTVYLQMNSLKPEDTAVYYCNTDRFWPSDYWGQGTQVTVSS | low polyreactivity
QVQLVESGGGLVQAGGSLRLICAASGIIFTYNAMGWYRQAPGKERELVAAINGGSSTNYADSVKGRFTISRDNAKNTVYLQMNSLKPEDTAVYDCAADVIPDGVKKPRMYYWGQGTQVTVSS | low polyreactivity
QVQLVESGGGLVQAGGSLRLSCAASGGTFYRNAMGWYRQAPGKERELVAAITKRGGSTYYADSVKGRFTISRDNAKNTVYIQINSLKPEDTAVYYCAKDAAPIPGNDSDYWGQGTQVTVSS | high polyreactivity
QVQLVESGGGLVQAGGSLRLSCAASGSIFLLYAMGGYRQAPGKERELVAAITRGGGSTYYADSVKGRFTISRDNAKNTVYLQMNSLKPEDTAVYYCAKGFQNHNGRLVVAYDYWGQGTQVTVSS | low polyreactivity
QVQLVESGGGLVQAGGSLRLSCAASGRTFGYNAMGWYRQAPGKERELVAAISRGDSTNYADSVKGRFTISRDNAKNTVYLQMNSLKPEDTAVYYCAAAFPRYRSRAIRVDYWGQGTQVTVSS | high polyreactivity
QVQLVESGGGLVQAGGSLRLSCAASGFIFSYNAMGWYRQAPGSERELVAAITRRTASTYYADSVKGRFTISRDNAKNTVYFQMNSLKPEDTAVYYCAADSSLKRPYYAGYYYWGQGTQVTVSS | high polyreactivity
QFQLVESGGGLVQAGGSLRLSCAASGSIFDAYAMGWYRQAPGKERELVPAITYSGGSTYYADSVKGRFTISRDNAKNTVYLQMNSLKPEDTAVYYCNTDSRVRTWFRAFTFDSWGQGTQVTVSS | low polyreactivity
QVQLVESGGGLVQAGGSLRLSCAASGSIFDPYAMGWYRQAPGKERELVAAISFRGGGTYYADSVKGRFTISRDNAKNTVYLQMNSLKPEDTAVYYCNVDYYWISGYVGSYIEFDYWGQGTQVTVSS | low polyreactivity
QVQLVESGGGLVQAGGSLRLSCAASGRTVSGYSMGWYIQAPGKERELVARITSGYSTNYADSVKWRFTISRDNAKNTVYLQMNCMKPEDTAVYYCAADRVWAFWTYGYWGQGTQVTVSS | low polyreactivity
QVQLEESGGGLVQAGGSLRLICAASGRTFVYYAMGWYRQAPGKERELVAAISTGGSTNYADSVKGRFTISRDNAKNTVYLQMNSLKTEDTAVYYCAAQYYISISKYDYWGQGTQVTVSS | low polyreactivity
QVQLVESGVGLVQAGGSLRLSCAASGSTFDDYAMGWYRQAPGKERELVAAINKTGGSTNYADSVKGRFTISRDNAKNTVYLQMNSLKPEDNAVYYCAADGSNYSASVAAFPYRVDYWGQGTQVTVSS | low polyreactivity
QVQLVESGGGLVQAGGSLRLSCAASGPTFFLYDMGWYRQAPGKERELVAAITSSGGDTYYADSVKGRFTISRDNAKNTVYLQMNSLKPEDTAVYYCAAEVWFPDRWMDYWGQGTQVTVSS | high polyreactivity
QVQLQESGGGQVQAGGSLRLSCEASGTIFLYAFMGWYRQAPGKERELVAAIDVGTTTNYADSVKGRFTISRDNAKNTVYLQMNSLKPEDTAVYYCAANLGYLDDLGYWGQGTQVTVSS | low polyreactivity
QVQLVESGGGLVQAGGSLRLSCAASGRTFAYNAMGWYRQAPGKERELVAAISRSGTITYYADSVKGRFTISRDNAKNTVYLQMNSLKPEDTAVYYCNKASTYPSYDYWGQGTQVTVSS | high polyreactivity
